Experimental findings from patent publication US20250027068 are described below.

Sequences and labels used below:
B1: PRT-246 (protein)
chain: MVTSVWTKGVTPPANFTQGEDVFHAPYVANQGWYDITKLFNGKDDLLCGAATAGNMLHWWFDQNKDQIKRYLEEHPEKQKINFNGEQMFDVKEAIDTKNHQLDSKLFDYFKEKAFPYLSTKHLGVFPDHVIDMFINGYRLSLTNHGPTPVKEGSKDPRGGIFDAVFTRGDQSKLLTSRHDFKEKNLKEISDLIKKELTEGKALGLSHTYANVRINHVINLWGADFDSNGNLKAIYVTDSDSNPSIGMKKYFVGVNSSGKVAISAKEIKEDNIGAQVLGLFTLSTGQDSWNQTN
B2: PRT-545 (protein)
chain: MANQEIRYSEETPKTITSVWTKGVTPPTDFIKNEDVLHAPYIANQGWYDITKTFNGKDDLLCGAATAGNMLHWWFDQNKEEIERYLKKHPEKQKINFNGEQMFDVKEAIDTKDSQTDSALFEYFKDKAFPYLSTKHLGVFPDHVIDMFINGYRLSLTNHGPTPVKRGTKDPRGGIFDAVFTRGDQSKLLTSRHDFKEKTLKEISDLIKQELTEGKALGLSHTYANVRINHVINLWGADFDSEGNLEAIYVTDSDSNASIGMKKYYVGVNSAGKVAISAKEIEGDNIGAQVLGLFTLSTGQDIWEQTNLEHHHHHH
B3: PRT-571 (protein)
chain: MANQEIRYSEETPSTITSVWTKGVTPPTQFIQNEDVLHAPYIANQGWYDITKTFNGKDDLLCGAATAGNMLHWWFDQNKEQIENYLKKHPEKQKINFNGEQMFDVKEAIDTKDSQTDSALFEYFKDKAFPYLSTKHLGVFPDHVIDMFINGYRLSLTNHGPTPVKRGTKDPRGGIFDAVFTRGDQSKLLTSRHDFKEKTLNEISDLIKQELTEGKALGLSHTYANVRINHVINLWGADFNAEGNLEAIYVTDSDSNASIGMKKYYVGVNAAGKVAISAKEIEGDNIGAQVLGLFTLSTGQDIWNQTNLEHHHHHH
B4: PRT-596 (protein)
chain: MANQEIRYSEETPSTITSVWTKGVTPPTDFIQNEDVLHAPYIANQGWYDITKTFNGKDDLLCGAATAGNMLHWWFDQNKEQIENYLKKHPEKQKINFNGEQMFDVKEAIDTKDSQTDSALFEYFKDKAFPYLSTKHLGVFPDHVIDMFINGYRLSLTNHGPTPVKRGTKDPRGGIFDAVFTRGDQSKLLTSRHDFKEKTLNEISDLIKKELTEGKALGLSHTYANVRINHVINLWGADFNAEGNLEAIYVTDSDSNASIGMKKYYVGVNSAGKVAISAKEIEGDNIGAQVLGLFTLSTGQDIWNQTNLEHHHHHH
B5: PRT-587 (protein)
chain: MANQEIRYSEETPKTITSVWTKGVTPPTDFIYNEDVLHAPYIANQGWYDITKTFNGKDDLLCGAATAGNMLHWWFDQNKEQIERYLKKHPEKQKINFNGEQMFDVKEAIDTKDSQTDSKLFEYFKDKAFPYLSTKHLGVFPDHVIDMFINGYRLSLTNHGPTPVKRGTKDPRGGIFDAVFTRGDQSKLLTSRHDFKEKTLNEISDLIKQELTEGKALGLSHTYANVRINHVINLWGADFNSEGNLEAIYVTDSDSNASIGMKKYYVGVNSAGKVAISAKEIEGDNIGAQVLGLFTLSTGKDIWEQTNLEHHHHHH
B6: PRT-544 (protein)
chain: MANQEIRYSKNENPNVTIKWVHGIGEPTQAEKEKIEFWWYETTTTKFFNNRKVDHLGDGNQCWAKTDSNMLHWWFVQNEENINQYIAKKNITGKINFNGEQMFDVKEGIDDNQEKEKSYIANTFRTKKAHNLSTKHKGDYIINGLSWYLYGLNNFKIAHGPTPVKKKPKFYGPALFKDVFNRGDGNTPIIVETDFKEYTKKEFEDTLSAALDSKKAIGINIYGSNVDYQHAITLWGAAFDEEENIIAIYVVDNNFKFENRIFPYGIWYQKEGRPYLFNYEINSFVKNRYVGEVITLDKGEAQWQETNLEHHHHHH
B7: PRT-534 (protein)
chain: MANQEIRYSSDSEWANKKVWVYGITPPEEGAWKYSTYYLPWKKEYGWYDCNKRNPTADGMMCWAATASNLLHWWIAQNKEYIDLYGDKYKGPDKINFNGEQMFDVKEYIDPLDKPQESDIFQCFIDKSFADLSTKHEAGYGDAGINWFIHGIIPSSPAHGPTPVKLDYPYNPAGYFKDVFPRGDGVVLLGNNGDFKELSKERFNETIKDALKNKKAIGLSIGPVNVRSSHVVTIWGAEFDENGDVSYIYMADNNDNWGVGCIRYQIVYEEGGTYTCYKTEIIPSDRPIPINRLVTLELGEEYWKQTNLEHHHHHH
B8: PRT-583 (protein)
chain: MANQEIRYSKAKPKVITSVWTKGVTPPTQFTKNEDVFHAPYLANQGWYDITKTFNGKDDLLCGAATAGNMLHWWFDQNKEQIERYLKKHPEKQKINFNGEQMFDVKEAIDTKDSQTNSKLFNYFKEKAFPYLSTKHLGVFPDHVIDMFINGYRLSLTNHGPTPVKEQNKDPRGGIFDDVFTRGDQSKLLTSRHDFKEKTLKEISDLIKQELKEGKALGLSHTYANVRINHVINLWGADFDAEGNLIAIYVTDSDSNASIGMKKYYVGVNSAGKVAISAKEIEDDNIGAQVLGLFTLSTGKDIWEKTNLEHHHHHH
B9: PRT-262 (protein)
chain: MVTSVWTKGVTPPTNFTYGEDVLHAPYVANQGWYDITKTFNGKDNLLCGAATAGNMLHWWFDQNKEQIENYLKKHPEKQKINFNGEQLFDVKEAIDTKDSQLDSKLFEYFLEKAFPNLSTKHLGVFPDHVIDMFINGYRLSLLNHGPTPVKRGSKDKRGGIFDAVFTRGVQSKLLTNRHDFKEKTLKEISDLIKQELTEGKALGISHTYANVRINHVINLWGADFDAEGNLEAIAVTDSDTNASIGMKKYFVGVNSSGKVAISAKEIEEDNIGAQVLGLFTLSTGQDIWNQTN
B10: PRT-559 (protein)
chain: MANQEIRYSEETPKTITSIWTKGVTPPTDFIKTEDVLHAPYVANQGWYDITKTFNGKDDLLCGAATAGNMLHWWFDQNKEEIENYLKKHPEKQKINFNGEQMFDVKEAIDTKDSQTDSALFEYFKDKAFPYLSTKHLGVFPDHVIDMFINGYRLSLTNHGPTPVKDGTKDPRGGIFDAVFTRGDQTKLLTERHDFKEKTLNEISDLIKQELTEGKALGLSHTYANVRINHVINLWGADFNSEGNLEAIYVTDSDSNASIGMKKYYVGVNAAGKVAISAKEIEDDNIGAQVLGLFTLSTGQDIWEQTNLEHHHHHH
B11: PRT-269 (protein)
chain: MVTSVWTKGVTPPTDFIYGEDVLHAPYKAGQGWYDITKTFNGKDDLLCGAATAGNMLHWWFDQNKEQIENYLKKHPEKQKINFNGEQMFDVKEAIDTKDSQLDSKLFEYFLEKAFPNLSTKHLGVFPDHVIDMFINGYRLSLLNHGPTPVKRGSKDPRGGIFDAVFTRGDQSKLLTNRHDLKNKTLKEISDLIKQELTEGKALGISHTYANVRINHVINLWGADFDAEGNLEAIAVTDSDSNASIGMKKYFVGVNSSGKVAISAKEIEEDNIGAQVLGLFTLSTGQDIWNQTN
B12: PRT-254 (protein)
chain: MVTSVWTKGVTPPTNFTYGEDVLHAPYVANQGWYDITKTFNGKDDLLCGAATAGNMLHWWFDQNKEQIENYLKKHPEKQKINFNGEQMFDVKEAIDTKDSQLDSKLFEYFLEKAFPNLSTKHLGVFPDHVIDMFINGYRLSLLNHGPTPVKRGSKDPRGGIFDAVFTRGDQSKLLTNRHDFKEKTLKEISDLIKQELTEGKALGISHTYANVRINHVINLWGADFDAEGNLEAIYVTDSDSNKSIGMKKYPVGVNSNGKVAISAKEIEEDNIGAQVLGLFTLSTGQDIWNQTN
B13: PRT-270 (protein)
chain: MVTSVWTKGVTPPTDFIYGEDVLHAPYKAGQGWYDITKLFNGKDDLLCGAATAGNMLHWWFDQNKEQIENYLKKHPEKQKINFNGEQMFDVKEAIDTKDSQLDSKLFEYFLEKAFPNLSTKHLGVFPDHVIDMFINGYRLSLLNHGPTPVKRGSKDPRGGIFDAVFTRGDQSKLLTNRHDLKNKTLKEISDLIKQELTEGKALGISHTYANGRINHVINLWGADFDAEGNLEAIAVTDSDSNASIGMKKYFVGVNSSGKVAISAKEIEEDNIGAQVLGLFTLSTGQDIWNQTN

This data set concerns the target pooled human IgG (human IgG1, 2, 3 and 4).
For B1, the Enzyme Activity Endpoint Assay: Fab′2 came to 666 ng/µL, the Enzyme Activity Endpoint Assay: Fc stood at 348 ng/µL, the Enzyme Activity Endpoint Assay: IgG turned out to be 0 ng/µL and the Enzyme Activity Endpoint Assay: scIgG came to 221 ng/µL.
For B2, in that order: 690 ng/µL, 435 ng/µL, 0 ng/µL and 0 ng/µL.
For B3, in that order: 786 ng/µL, 383 ng/µL, 0 ng/µL and 295 ng/µL.
B4 returned an Enzyme Activity Endpoint Assay: Fab′2 of 753 ng/µL, an Enzyme Activity Endpoint Assay: Fc of 348 ng/µL, an Enzyme Activity Endpoint Assay: IgG of 0 ng/µL and an Enzyme Activity Endpoint Assay: scIgG of 263 ng/µL.
Protein B5 yielded an Enzyme Activity Endpoint Assay: Fab′2 of 347 ng/µL, an Enzyme Activity Endpoint Assay: Fc of 156 ng/µL, an Enzyme Activity Endpoint Assay: IgG of 0 ng/µL and an Enzyme Activity Endpoint Assay: scIgG of 120 ng/µL.
For B6, in that order: 12 ng/µL, 170 ng/µL, 314 ng/µL and 748 ng/µL.
For B7, in that order: 0 ng/µL, 0 ng/µL, 1380 ng/µL and 0 ng/µL.
For B8, the Enzyme Activity Endpoint Assay: Fab′2 amounted to 748 ng/µL, the Enzyme Activity Endpoint Assay: Fc was 396 ng/µL, the Enzyme Activity Endpoint Assay: IgG was found to be 0 ng/µL and the Enzyme Activity Endpoint Assay: scIgG stood at 261 ng/µL.
B9 gave an Enzyme Activity Endpoint Assay: Fab′2 of 50 ng/µL, an Enzyme Activity Endpoint Assay: Fc of 191 ng/µL, an Enzyme Activity Endpoint Assay: IgG of 289 ng/µL and an Enzyme Activity Endpoint Assay: scIgG of 802 ng/µL.
For B10, in that order: 657 ng/µL, 158 ng/µL, 0 ng/µL and 0 ng/µL.
For B11, in that order: 98 ng/µL, 189 ng/µL, 86 ng/µL and 592 ng/µL.
The protein B12 had an Enzyme Activity Endpoint Assay: Fab′2 of 677 ng/µL, an Enzyme Activity Endpoint Assay: Fc of 359 ng/µL, an Enzyme Activity Endpoint Assay: IgG of 0 ng/µL and an Enzyme Activity Endpoint Assay: scIgG of 0 ng/µL.
Protein B13 showed an Enzyme Activity Endpoint Assay: Fab′2 of 376 ng/µL, an Enzyme Activity Endpoint Assay: Fc of 288 ng/µL, an Enzyme Activity Endpoint Assay: IgG of 100 ng/µL and an Enzyme Activity Endpoint Assay: scIgG of 311 ng/µL.
